# Source: patent publication US20260242478A1 (published 2026)
# Where no end group is shown, it is not given here.
# B1: Phage-3343 (peptide)
# peptide: TAPMCKPEWMCVAL
# modifications: cysteine pairing not given here; also: fused to pIII of bacteriophage
# notes: not shown: fused to pIII of the bacteriophage
# B2: Phage-3331 (peptide)
# peptide: VNELCIPSWMCNGF
# B3: Phage-3339 (peptide)
# peptide: TASMCKPPWMCLGF
# modifications: cysteine pairing not given here; also: fused to pIII of bacteriophage
# notes: as for B1
# B4: Phage-3335 (peptide)
# peptide: EGRYCVPEWMCQGF
# B5: Phage-3345 (peptide)
# peptide: GELKCIPPWMCEGF
# modifications: cysteine pairing not given here; also: fused to pIII of bacteriophage
# notes: as for B1
# B6: Phage-3357 (Peptide-180 library peptide) (peptide)
# peptide: DTIQCKPAWMCVGF
# notes: tested as crude clonal phage supernatant
# B7: Phage-3364 (peptide)
# peptide: ESNFCVPAWMCTGF
# modifications: cysteine pairing not given here; also: fused to pIII of bacteriophage
# B8: Phage-3338 (peptide)
# peptide: VDALCRPSWMCIGF
# modifications: cysteine pairing not given here; also: fused to pIII of bacteriophage
# notes: as for B1
# B9: Phage-3332 (peptide)
# peptide: PELWCVPSWMCEGF
# B10: Phage-3349 (peptide)
# peptide: HIKECTPRWMCVGF
# modifications: cysteine pairing not given here; also: fused to pIII of bacteriophage
# notes: as for B1
# B11: Phage-3336 (peptide)
# peptide: IVDICKPSWMCEGF
# modifications: cysteine pairing not given here; also: fused to pIII of bacteriophage
# notes: as for B1
# B12: Phage-3355 (Peptide-180 library peptide) (peptide)
# peptide: IGLLCAPKWMCEGF
# modifications: cysteine pairing not given here; also: fused to pIII of bacteriophage
# notes: as for B6
# B13: Phage-3361 (Peptide-180 library peptide) (peptide)
# peptide: WMPYCVPHWMCDGF
# notes: as for B6
# B14: Phage-3329 (peptide)
# peptide: VDRLCSPAWMCLGF
# B15: Phage-3330 (peptide)
# peptide: MEAMCRPAWMCAGF
# modifications: cysteine pairing not given here; also: fused to pIII of bacteriophage
# B16: Phage-3340 (peptide)
# peptide: MHFHCKPAWMCQGL
# modifications: cysteine pairing not given here; also: fused to pIII of bacteriophage
# notes: as for B1
# B17: Phage-3351 (Peptide-180 library peptide) (peptide)
# peptide: VRPMCEPVWMCMGF
# notes: as for B6
# B18: Phage-3342 (peptide)
# peptide: MEPVCKPKWMCQGF
# modifications: cysteine pairing not given here; also: fused to pIII of bacteriophage
# notes: as for B1
# B19: Phage-3363 (Peptide-180 library peptide) (peptide)
# peptide: EDVLCKPLWMCFGF
# notes: as for B6
# Experiments:
# PSMA Fab (006 PSMA Fab) [1] = biological target: T1, PSMA Fab (006 PSMA Fab) (biotinylated (site not stated)); experiment: clonal phage ELISA on biotinylated PSMA Fab captured on neutravidin, anti-M13-HRP detection;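 note: crude clonal phage supernatants added to wells preincubated with PSMA antigen in blocking buffer or with blocking buffer alone, brief binding period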
# T1 construct: also called Anti-PSMA Fab; anti-PSMA Fab
# PSMA Fab (006 PSMA Fab) [2] = biological target: T1, PSMA Fab (006 PSMA Fab); experiment: clonal phage ELISA on captured PSMA Fab, wells pre-incubated with PSMA antigen as competitor
# Procedure: (§1) Clonal phage were harvested as crude supernatants and screened via standard ELISAs. […] Prior to the addition of clonal phage. wells were incubated with blocking buffer and PSMA antigen or blocking buffer alone. Without washing or aspirating, clonal phage supernatants were then added to the wells and incubated for a short time. Wells were then washed followed by detection of bound phage using a horse radish conjugated anti-M13 antibody.
# PSMA Fab [3] = biological target: T2, PSMA Fab (biotinylated (site not stated)); experiment: clonal phage ELISA on biotinylated PSMA Fab captured on neutravidin plates, blocking buffer alone; anti-M13 HRP detection
# T2 construct: Biotinylated PSMA Fab captured on neutravidin coated plates in the phage ELISA; also called Anti-PSMA Fab; 006 PSMA Fab
# PSMA Fab [4] = biological target: T2, PSMA Fab; experiment: clonal phage ELISA on captured PSMA Fab, wells pre-incubated with PSMA antigen as competitor; anti-M13 HRP detection
# Procedure: as §1
# PSMA Fab (006 PSMA Fab) [5] = biological target: T3, PSMA Fab (006 PSMA Fab); experiment: phage ELISA: clonal phage supernatant on biotinylated PSMA Fab captured on neutravidin plate, wells pre-incubated with PSMA antigen as competitor; anti-M13 HRP detection
# T3 construct: also called Anti-PSMA Fab
# Procedure: as §1
# PSMA Fab (006 PSMA Fab) [6] = biological target: T3, PSMA Fab (006 PSMA Fab); experiment: phage ELISA: clonal phage supernatant on biotinylated PSMA Fab captured on neutravidin plate, blocking buffer alone; anti-M13 HRP detection;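 note: crude clonal phage supernatants added to wells preincubated with blocking buffer, incubated briefly, bound phage detected with a horseradish-conjugated anti-M13 antibody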
# Procedure: as §1
# PSMA Fab (006 PSMA Fab) [7] = biological target: T4, PSMA Fab (006 PSMA Fab) (biotinylated (site not stated)); experiment: clonal phage ELISA on biotinylated PSMA Fab captured on neutravidin, anti-M13 HRP detection, no PSMA
# T4 construct: In the clonal phage ELISA the biotinylated PSMA Fab was captured on neutravidin coated plates; also called Anti-PSMA Fab
# PSMA Fab (006 PSMA Fab) [8] = biological target: T4, PSMA Fab (006 PSMA Fab); experiment: clonal phage ELISA on captured PSMA Fab pre-incubated with PSMA antigen as competitor;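 note: crude clonal phage supernatants added to wells without washing away the PSMA competitor, bound phage detected by HRP-conjugated anti-M13 antibody, reference wells received blocking buffer only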
# Procedure: as §1
binder,measurement,setting,value
B1,"Phage binding ELISA signal, Anti-PSMA Fab",PSMA Fab (006 PSMA Fab) [1],1.83
same,phage binding ELISA signal (Anti-PSMA Fab with PSMA),PSMA Fab (006 PSMA Fab) [2],0.0952
B2,phage binding ELISA signal,PSMA Fab [3],1.84
same,phage binding ELISA signal,PSMA Fab [4],0.0845
B3,"Phage binding ELISA signal, Anti-PSMA Fab",PSMA Fab (006 PSMA Fab) [1],1.83
same,phage binding ELISA signal (Anti-PSMA Fab with PSMA),PSMA Fab (006 PSMA Fab) [2],0.0684
B4,phage binding ELISA signal,PSMA Fab [3],1.84
same,phage binding ELISA signal,PSMA Fab [4],0.0864
B5,"Phage binding ELISA signal, Anti-PSMA Fab",PSMA Fab (006 PSMA Fab) [1],1.83
same,phage binding ELISA signal (Anti-PSMA Fab with PSMA),PSMA Fab (006 PSMA Fab) [2],0.0808
B6,phage binding ELISA signal,PSMA Fab (006 PSMA Fab) [5],0.102
same,phage binding ELISA signal,PSMA Fab (006 PSMA Fab) [6],1.82
B7,"Phage binding ELISA signal, Anti-PSMA Fab",PSMA Fab (006 PSMA Fab) [7],1.82
same,"Phage binding ELISA signal, Anti-PSMA Fab with PSMA antigen",PSMA Fab (006 PSMA Fab) [8],0.073
B8,"Phage binding ELISA signal, Anti-PSMA Fab",PSMA Fab (006 PSMA Fab) [1],1.84
same,phage binding ELISA signal (Anti-PSMA Fab with PSMA),PSMA Fab (006 PSMA Fab) [2],0.0688
B9,phage binding ELISA signal,PSMA Fab [3],1.84
same,phage binding ELISA signal,PSMA Fab [4],0.0867
B10,"Phage binding ELISA signal, Anti-PSMA Fab",PSMA Fab (006 PSMA Fab) [1],1.82
same,phage binding ELISA signal (Anti-PSMA Fab with PSMA),PSMA Fab (006 PSMA Fab) [2],0.078
B11,"Phage binding ELISA signal, Anti-PSMA Fab",PSMA Fab (006 PSMA Fab) [1],1.84
same,phage binding ELISA signal (Anti-PSMA Fab with PSMA),PSMA Fab (006 PSMA Fab) [2],0.0649
B12,phage binding ELISA signal,PSMA Fab (006 PSMA Fab) [5],0.0676
same,phage binding ELISA signal,PSMA Fab (006 PSMA Fab) [6],1.82
B13,phage binding ELISA signal,PSMA Fab (006 PSMA Fab) [5],0.119
same,phage binding ELISA signal,PSMA Fab (006 PSMA Fab) [6],1.82
B14,phage binding ELISA signal,PSMA Fab [3],1.84
same,phage binding ELISA signal,PSMA Fab [4],0.0785
B15,phage binding ELISA signal,PSMA Fab [3],1.84
same,phage binding ELISA signal,PSMA Fab [4],0.0662
B16,"Phage binding ELISA signal, Anti-PSMA Fab",PSMA Fab (006 PSMA Fab) [1],1.83
same,phage binding ELISA signal (Anti-PSMA Fab with PSMA),PSMA Fab (006 PSMA Fab) [2],0.0998
B17,phage binding ELISA signal,PSMA Fab (006 PSMA Fab) [5],0.0972
same,phage binding ELISA signal,PSMA Fab (006 PSMA Fab) [6],1.82
B18,"Phage binding ELISA signal, Anti-PSMA Fab",PSMA Fab (006 PSMA Fab) [1],1.83
same,phage binding ELISA signal (Anti-PSMA Fab with PSMA),PSMA Fab (006 PSMA Fab) [2],0.07
B19,phage binding ELISA signal,PSMA Fab (006 PSMA Fab) [5],0.0901
same,phage binding ELISA signal,PSMA Fab (006 PSMA Fab) [6],1.82
